We go through 1 molecule from patent publication US20050261472A1, “Binding moieties for fibrin” (Dyax Corp., priority 1999, published 2005).

Bridge positions count the residues as written; N and C are the ends. Ends that are not written are not given here.

Assay [1] has as its target T1, dried fibrin (UniProt P02671 36-629; P02675 45-491; P02679 27-437, limits assumed).
T1 construct: Polymerised fibrin made in 96-well plates from fibrinogen and thrombin, dried at 37 C and rehydrated; also called (rehydrated) dried fibrin; fibrin target
T1 sequence (looked up) 1: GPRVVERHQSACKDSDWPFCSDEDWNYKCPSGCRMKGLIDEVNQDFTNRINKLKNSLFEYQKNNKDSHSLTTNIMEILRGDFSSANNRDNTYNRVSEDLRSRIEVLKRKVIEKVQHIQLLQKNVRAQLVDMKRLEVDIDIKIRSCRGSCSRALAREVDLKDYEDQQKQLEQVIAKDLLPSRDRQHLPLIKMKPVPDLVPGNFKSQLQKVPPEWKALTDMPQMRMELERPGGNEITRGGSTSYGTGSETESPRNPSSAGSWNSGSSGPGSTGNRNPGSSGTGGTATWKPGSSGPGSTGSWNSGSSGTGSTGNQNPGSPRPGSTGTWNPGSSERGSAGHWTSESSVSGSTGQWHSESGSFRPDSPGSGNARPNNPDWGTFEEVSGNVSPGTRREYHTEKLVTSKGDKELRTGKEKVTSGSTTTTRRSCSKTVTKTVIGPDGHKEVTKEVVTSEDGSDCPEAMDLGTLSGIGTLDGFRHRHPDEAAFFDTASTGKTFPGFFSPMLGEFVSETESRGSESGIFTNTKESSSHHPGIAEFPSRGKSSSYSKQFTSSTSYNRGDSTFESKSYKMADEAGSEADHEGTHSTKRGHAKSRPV
T1 sequence (looked up) 2: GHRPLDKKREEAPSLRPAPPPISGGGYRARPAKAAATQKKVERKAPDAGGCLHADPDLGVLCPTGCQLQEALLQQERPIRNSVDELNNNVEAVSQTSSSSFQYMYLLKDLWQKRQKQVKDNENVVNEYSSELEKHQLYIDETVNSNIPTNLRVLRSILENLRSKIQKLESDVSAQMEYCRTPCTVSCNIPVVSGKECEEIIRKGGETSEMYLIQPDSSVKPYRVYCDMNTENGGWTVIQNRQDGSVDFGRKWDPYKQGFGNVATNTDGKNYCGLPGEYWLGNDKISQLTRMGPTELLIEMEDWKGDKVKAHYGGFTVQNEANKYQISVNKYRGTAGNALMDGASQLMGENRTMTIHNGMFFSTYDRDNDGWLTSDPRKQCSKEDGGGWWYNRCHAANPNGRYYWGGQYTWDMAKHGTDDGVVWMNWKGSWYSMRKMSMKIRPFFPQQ
T1 sequence (looked up) 3: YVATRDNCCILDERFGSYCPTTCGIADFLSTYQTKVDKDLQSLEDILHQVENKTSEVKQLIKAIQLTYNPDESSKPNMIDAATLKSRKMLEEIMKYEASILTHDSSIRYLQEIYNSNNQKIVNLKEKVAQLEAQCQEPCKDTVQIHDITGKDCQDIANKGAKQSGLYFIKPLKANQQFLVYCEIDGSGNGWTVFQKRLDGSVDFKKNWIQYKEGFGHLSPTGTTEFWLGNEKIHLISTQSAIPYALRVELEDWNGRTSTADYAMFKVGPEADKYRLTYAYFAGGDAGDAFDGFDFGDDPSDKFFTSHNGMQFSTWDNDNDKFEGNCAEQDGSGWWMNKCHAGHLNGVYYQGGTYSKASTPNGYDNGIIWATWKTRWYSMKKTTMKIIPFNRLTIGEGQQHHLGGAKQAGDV
Nature of the assay: dried fibrin plate, bound vs free peptide.

The target of assay [2] is T2, fibrinogen (UniProt P02671 20-629; P02675 31-491; P02679 27-437, limits assumed).
T2 sequence (looked up) 1: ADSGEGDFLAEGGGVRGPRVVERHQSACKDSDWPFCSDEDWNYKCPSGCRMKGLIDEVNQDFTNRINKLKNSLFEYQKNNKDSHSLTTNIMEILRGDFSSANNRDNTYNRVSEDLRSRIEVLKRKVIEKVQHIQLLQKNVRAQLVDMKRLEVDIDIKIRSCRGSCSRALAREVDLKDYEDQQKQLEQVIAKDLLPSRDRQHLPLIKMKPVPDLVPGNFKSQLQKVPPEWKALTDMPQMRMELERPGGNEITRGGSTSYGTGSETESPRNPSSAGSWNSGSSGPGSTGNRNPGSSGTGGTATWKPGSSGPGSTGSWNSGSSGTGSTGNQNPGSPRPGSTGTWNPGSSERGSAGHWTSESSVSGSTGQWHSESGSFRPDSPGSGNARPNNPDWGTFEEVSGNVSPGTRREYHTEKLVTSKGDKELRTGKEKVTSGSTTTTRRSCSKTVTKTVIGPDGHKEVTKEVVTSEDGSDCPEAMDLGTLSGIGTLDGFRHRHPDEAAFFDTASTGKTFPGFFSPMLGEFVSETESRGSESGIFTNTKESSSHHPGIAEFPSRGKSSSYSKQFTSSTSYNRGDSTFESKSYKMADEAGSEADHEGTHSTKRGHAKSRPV
T2 sequence (looked up) 2: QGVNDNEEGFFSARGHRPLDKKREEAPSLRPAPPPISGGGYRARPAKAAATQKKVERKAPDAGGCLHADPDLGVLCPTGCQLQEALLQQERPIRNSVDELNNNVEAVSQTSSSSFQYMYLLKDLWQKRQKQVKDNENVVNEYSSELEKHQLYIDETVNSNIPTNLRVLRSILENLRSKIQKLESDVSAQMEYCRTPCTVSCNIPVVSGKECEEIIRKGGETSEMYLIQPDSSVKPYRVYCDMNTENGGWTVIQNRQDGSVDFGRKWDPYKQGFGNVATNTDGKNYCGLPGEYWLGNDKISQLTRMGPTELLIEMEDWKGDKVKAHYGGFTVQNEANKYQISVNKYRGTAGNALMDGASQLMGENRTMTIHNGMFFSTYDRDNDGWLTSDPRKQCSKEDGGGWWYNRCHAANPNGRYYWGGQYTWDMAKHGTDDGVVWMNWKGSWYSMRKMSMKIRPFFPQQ
T2 sequence (looked up) 3: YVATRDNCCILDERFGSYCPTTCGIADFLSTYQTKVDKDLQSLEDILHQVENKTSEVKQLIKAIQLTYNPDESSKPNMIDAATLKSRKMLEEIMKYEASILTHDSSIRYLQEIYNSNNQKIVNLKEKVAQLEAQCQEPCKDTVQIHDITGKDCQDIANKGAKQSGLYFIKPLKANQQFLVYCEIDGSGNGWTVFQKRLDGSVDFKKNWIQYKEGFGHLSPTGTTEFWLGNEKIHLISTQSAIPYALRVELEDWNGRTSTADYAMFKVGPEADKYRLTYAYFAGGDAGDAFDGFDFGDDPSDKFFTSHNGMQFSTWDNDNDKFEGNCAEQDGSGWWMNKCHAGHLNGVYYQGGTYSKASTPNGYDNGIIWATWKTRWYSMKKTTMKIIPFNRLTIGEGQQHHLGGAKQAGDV
Nature of the assay: equilibrium dialysis, fibrinogen 10 mg/ml, peptide by I.C.P. Here is the method: (§1) A solution of fibrinogen (10 mg/ml) was mixed with the MR labeled peptide of Example 11 designated Gd-DTPA-Pep1, at concentrations of 10, 50 and 100 μM. The fibrinogen/peptide solution was placed on one side of a dialysis membrane in an equilibrium dialysis apparatus. The solution was allowed to equilibrate with an equal volume of buffer on the opposite side of the membrane.
(In general: Equilibrium dialysis compares concentrations on both sides of a semipermeable membrane.)

Assay [3] has as its target T1, dried fibrin. Nature of the assay: ratio of Kd for fibrinogen (equilibrium dialysis) to Kd for fibrin. How it is done:
as §1

Assay [4] has as its target T3, fibrin of an in vitro clot formed from human blood plasma (human, UniProt P02671 36-629; P02675 45-491; P02679 27-437).
T3 construct: Plasma of a human donor clotted with CaCl2 in the presence of the peptide; also called in vitro blood clot
T3 sequence (looked up) 1: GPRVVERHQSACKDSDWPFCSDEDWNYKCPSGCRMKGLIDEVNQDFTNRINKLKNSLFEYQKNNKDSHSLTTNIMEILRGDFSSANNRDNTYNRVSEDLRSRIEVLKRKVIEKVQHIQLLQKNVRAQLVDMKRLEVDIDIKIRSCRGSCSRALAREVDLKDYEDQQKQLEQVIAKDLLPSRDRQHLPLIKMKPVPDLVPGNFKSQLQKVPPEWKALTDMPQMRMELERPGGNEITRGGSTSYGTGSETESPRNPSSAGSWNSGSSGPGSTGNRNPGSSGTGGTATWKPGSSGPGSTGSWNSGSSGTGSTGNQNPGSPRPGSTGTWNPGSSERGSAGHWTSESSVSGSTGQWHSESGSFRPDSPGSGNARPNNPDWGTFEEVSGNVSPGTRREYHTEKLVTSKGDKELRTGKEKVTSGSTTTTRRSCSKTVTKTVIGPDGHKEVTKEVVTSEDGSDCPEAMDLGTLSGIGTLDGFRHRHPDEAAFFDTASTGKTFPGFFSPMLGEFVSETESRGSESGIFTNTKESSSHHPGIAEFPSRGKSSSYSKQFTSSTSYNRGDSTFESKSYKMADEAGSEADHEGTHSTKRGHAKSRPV
T3 sequence (looked up) 2: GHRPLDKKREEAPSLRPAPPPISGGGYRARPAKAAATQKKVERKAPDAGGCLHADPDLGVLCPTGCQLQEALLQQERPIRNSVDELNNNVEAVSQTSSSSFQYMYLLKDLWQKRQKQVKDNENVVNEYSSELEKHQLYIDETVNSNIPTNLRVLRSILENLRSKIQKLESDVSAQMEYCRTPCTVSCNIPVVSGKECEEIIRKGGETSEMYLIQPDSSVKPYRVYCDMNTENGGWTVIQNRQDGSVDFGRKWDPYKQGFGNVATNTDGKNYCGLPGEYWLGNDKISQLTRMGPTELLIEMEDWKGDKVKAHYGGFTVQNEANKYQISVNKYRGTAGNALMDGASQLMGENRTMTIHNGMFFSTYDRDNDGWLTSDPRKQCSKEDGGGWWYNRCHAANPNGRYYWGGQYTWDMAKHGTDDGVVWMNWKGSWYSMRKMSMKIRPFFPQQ
T3 sequence (looked up) 3: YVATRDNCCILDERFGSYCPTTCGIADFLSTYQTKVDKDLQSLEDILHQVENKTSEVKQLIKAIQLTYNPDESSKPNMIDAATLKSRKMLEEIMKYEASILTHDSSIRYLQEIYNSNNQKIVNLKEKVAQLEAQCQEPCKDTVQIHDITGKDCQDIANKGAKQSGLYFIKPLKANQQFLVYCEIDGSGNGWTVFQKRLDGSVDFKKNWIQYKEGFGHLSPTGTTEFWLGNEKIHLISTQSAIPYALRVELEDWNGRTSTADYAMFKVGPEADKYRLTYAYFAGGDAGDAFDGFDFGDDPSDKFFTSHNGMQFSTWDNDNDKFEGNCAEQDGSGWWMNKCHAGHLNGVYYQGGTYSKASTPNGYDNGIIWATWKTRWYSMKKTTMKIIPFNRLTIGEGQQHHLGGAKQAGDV
As to the kind of experiment: human plasma clotted in the presence of peptide, free peptide by Gd I.C.P., bound vs free fit. Here is the method:
Freshly drawn whole blood was obtained from a human donor and centrifuged at 4000×g for 15 minutes to remove the hematocrit. The blood plasma (supernatant) was removed and dispensed into ten 1.5 ml tubes, 500 μL/tube. The MR labeled peptide of Example 11, GdDTPA-Pep1, was added to each tube at increasing concentrations (2, 5, 8, 10, 15, 20, 30, 50, 75, 100 μM) along with PBS buffer (50 mM sodium phosphate, 150 mM NaCl, pH 7.4) to bring the total volume to 550 μL. The sample was equilibrated at 37° C. A small aliquot (50 μL) was removed for quantitating the total peptide added (measured by Gd I.C.P. analysis after dilution into 0.1 M HNO₃). Clotting was initiated by the addition of 5 μL 2 M CaCl₂, and the samples are incubated at 37° C. for 1 hour. The tubes were spun down briefly (5 sec) and the clot was removed with a pipet tip. The remaining supernatant (˜200 μL) was diluted in HNO₃ and the peptide concentration (equal to the concentration of unbound or free peptide) was measured by Gd I.C.P. analysis. The difference between the total and free peptide concentrations yields the concentration of bound peptide.

One may read the Kd as the constant that tells how readily two partners part at equilibrium.

B1: Gd-DTPA-Pep1 (peptide)
peptide: LPCDYYGTCLD
modifications: disulfide 3-9 (inferred); not fully specified (N-terminus); also: Gd(III)-DTPA chelate, from DTPA-Asp(beta-COOH)-OtBu
On to B1, for which the Kd in assay [1] is 7.4 µM; in assay [2], 190 µM; in assay [4], around 20 µM. Further, the “specificity for fibrin over fibrinogen (fold)” value in assay [3] is around 70 fold.
